Measured values reported in paper PMC6637149, “Cryo-EM and directed evolution reveal how Arabidopsis nitrilase specificity is influenced by its quaternary structure” (Communications Biology, 2019).

Columns and labels:
[1] = biological target: the molecule itself; assay: cryo-EM structure; purified AtNIT4 filaments (~0.15 mg/ml) in 50 mM Tris-HCl pH 8.0, 100 mM NaCl, blotted at ~10% humidity, 25 °C; helical reconstruction, one helical turn treated as a single particle
[2] = biological target: the molecule itself; assay: negative-stain electron microscopy with 3D helical reconstruction; purified NIT filaments on carbon-coated copper grids, 2% uranyl acetate; iterative helical real-space reconstruction

| Protein | binding result [1] | binding result [2] |
| --- | --- | --- |
| Arabidopsis thaliana nitrilase 4 (AtNIT4), wild type (enzyme, UniProt P46011 1-355, looked up, Nitrilase 4 of Arabidopsis thaliana, NP_197622.1, AT5G22300; 355 residues in all, 289 built in the model; Forms open-ended left-handed helical filaments built of dimers, so no fixed number of copies. pET-21b(+) usually adds a C-terminal His6 tag (surmised); also called AtNIT4 wt; source: E. coli BL21-CodonPlus (DE3)-RIL, pET-21b(+), purified (Ni-NTA, SEC)) MSMQQETSHMTAAPQTNGHQIFPEIDMSAGDSSSIVRATVVQASTVFYDTPATLDKAERLLSEAAENGSQLVVFPEAFIGGYPRGSTFELAIGSRTAKGRDDFRKYHASAIDVPGPEVERLALMAKKYKVYLVMGVIEREGYTLYCTVLFFDSQGLFLGKHRKLMPTALERCIWGFGDGSTIPVFDTPIGKIGAAICWENRMPSLRTAMYAKGIEIYCAPTADSRETWLASMTHIALEGGCFVLSANQFCRRKDYPSPPEYMFSGSEESLTPDSVVCAGGSSIISPLGIVLAGPNYRGEALITADLDLGDIARAKFDFDVVGHYSRPEVFSLNIREHPRKAVSFKTSKVMEDESV | binds | – |
| AtNIT4 R95T (enzyme, Arabidopsis thaliana, UniProt P46011 1-355, looked up, Nitrilase 4 of Arabidopsis thaliana, NP_197622.1, with the substitution R95T; Full length is inferred from the parent construct; source: E. coli BL21-CodonPlus (DE3)-RIL, pET-21b(+), purified (Ni-NTA, SEC)) MSMQQETSHMTAAPQTNGHQIFPEIDMSAGDSSSIVRATVVQASTVFYDTPATLDKAERLLSEAAENGSQLVVFPEAFIGGYPRGSTFELAIGSTTAKGRDDFRKYHASAIDVPGPEVERLALMAKKYKVYLVMGVIEREGYTLYCTVLFFDSQGLFLGKHRKLMPTALERCIWGFGDGSTIPVFDTPIGKIGAAICWENRMPSLRTAMYAKGIEIYCAPTADSRETWLASMTHIALEGGCFVLSANQFCRRKDYPSPPEYMFSGSEESLTPDSVVCAGGSSIISPLGIVLAGPNYRGEALITADLDLGDIARAKFDFDVVGHYSRPEVFSLNIREHPRKAVSFKTSKVMEDESV | – | binds |
| AtNIT4 R95T L169A S224Q (enzyme, Arabidopsis thaliana, UniProt P46011 1-355, looked up, Nitrilase 4 of Arabidopsis thaliana, NP_197622.1, with three substitutions selected from a site-saturation library made in the vector of the wild type; Selected by directed evolution from the AtNIT4 pET-21b(+) vector; full length is inferred from the parent construct; also called the mutant; NIT4 mutant; source: E. coli BL21-CodonPlus (DE3)-RIL, pET-21b(+), purified (Ni-NTA, SEC)) MSMQQETSHMTAAPQTNGHQIFPEIDMSAGDSSSIVRATVVQASTVFYDTPATLDKAERLLSEAAENGSQLVVFPEAFIGGYPRGSTFELAIGSTTAKGRDDFRKYHASAIDVPGPEVERLALMAKKYKVYLVMGVIEREGYTLYCTVLFFDSQGLFLGKHRKLMPTAAERCIWGFGDGSTIPVFDTPIGKIGAAICWENRMPSLRTAMYAKGIEIYCAPTADQRETWLASMTHIALEGGCFVLSANQFCRRKDYPSPPEYMFSGSEESLTPDSVVCAGGSSIISPLGIVLAGPNYRGEALITADLDLGDIARAKFDFDVVGHYSRPEVFSLNIREHPRKAVSFKTSKVMEDESV | – | binds |
